Columns and labels:
[1] = biological target: T1, Activin AB (human, UniProt P08476 311-426; P09529 293-407); assay: SPR (Biacore), mAb captured on anti-Fc, Activin AB injected, 25 C
T1 construct: Heterodimer of one betaA and one betaB subunit; bought (R&D Systems #1006-AB-005 / #1066-AB)
T1 chain 1: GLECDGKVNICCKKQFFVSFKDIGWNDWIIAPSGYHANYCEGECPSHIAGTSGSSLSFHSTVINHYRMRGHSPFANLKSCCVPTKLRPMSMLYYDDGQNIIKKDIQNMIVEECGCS
T1 chain 2: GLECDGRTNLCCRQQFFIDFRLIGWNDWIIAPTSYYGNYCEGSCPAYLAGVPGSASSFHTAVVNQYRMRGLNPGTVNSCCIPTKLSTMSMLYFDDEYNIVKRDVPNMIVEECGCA
Protocol: (§1) Antibody-antigen association was monitored for 240 seconds while dissociation in buffer was monitored for 600 seconds. Kinetic association and dissociation rate constants were determined by processing and fitting the data using Scrubber software version 2.0c. Binding equilibrium dissociation constants (KD) and dissociative half-lives (t_{1/2}) were then calculated from the kinetic rate constants as: KD (M)=kd/kₐ and t_{1/2} (min)=[ln 2/(60*kd)]. (NB=no binding observed under the conditions used; NT=not tested).

[2] = biological target: T2, Activin AC (human, UniProt P55103 237-352); assay: SPR (Biacore), mAb captured on anti-Fc, Activin AC injected, 25 C
T2 construct: Heterodimer of one betaA and one betaC subunit; bought (R&D Systems #4879-AC)
T2 sequence 1: T1 chain 1
T2 sequence 2: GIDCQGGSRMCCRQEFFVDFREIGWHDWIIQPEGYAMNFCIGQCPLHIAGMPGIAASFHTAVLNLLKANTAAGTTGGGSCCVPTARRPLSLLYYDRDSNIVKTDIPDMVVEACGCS
Protocol: as §1

[3] = biological target: T1, Activin AB; assay: SPR (Biacore), mAb captured on anti-Fc, Activin AB injected, 37 C
Protocol: as §1

[4] = biological target: T2, Activin AC; assay: SPR (Biacore), mAb captured on anti-Fc, Activin AC injected, 37 C
Protocol: as §1

[5] = biological target: T3, Activin A (human, UniProt P08476 311-426); assay: cell-based or functional assay
T3 sequence: T1 chain 1

[6] = biological target: T1, Activin AB; assay: cell-based or functional assay
[7] = biological target: T2, Activin AC; assay: cell-based or functional assay
[8] = biological target: T4, Activin B (human, UniProt P09529 293-407); assay: cell-based or functional assay
T4 chain: T1 chain 2

[9] = biological target: T5, hBMP4 (human, UniProt P12644 293-408); assay: SPR (Biacore 4000), captured on anti-human Fc, 200 nM ligand injected, 37 C
T5 construct: Bought protein
T5 sequence (looked up): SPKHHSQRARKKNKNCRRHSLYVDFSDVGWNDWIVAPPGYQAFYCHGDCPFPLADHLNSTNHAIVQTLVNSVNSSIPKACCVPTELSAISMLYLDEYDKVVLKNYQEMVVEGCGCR
Protocol: (§2) For the binding experiment, a Biacore 4000 instrument was used. […] All Biacore binding studies were performed in HBS-T running buffer (0.01 M HEPES pH 7.4, 0.5 M NaCl, 3 mM EDTA, 0.5 mg/ml bovine serum albumin, 0.05% v/v Surfactant P20). […] All binding measurements were performed at 37° C. […] Over the captured antibody surface was injected the TGF-beta family ligands through concentrations ranging from 3.1 nM to 200 nM.

[10] = biological target: T3, Activin A; assay: as above
Protocol: as §2

[11] = biological target: T6, hBMP9 (human, UniProt Q9UK05 320-429); assay: as above
T6 construct: Bought protein
T6 sequence (looked up): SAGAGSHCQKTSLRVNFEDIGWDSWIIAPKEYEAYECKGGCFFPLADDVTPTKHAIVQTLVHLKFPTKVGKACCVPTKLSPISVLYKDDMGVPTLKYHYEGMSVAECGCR
Protocol: as §2

[12] = biological target: T1, Activin AB; assay: as above
Protocol: as §2

[13] = biological target: T7, GDF8 (human, UniProt O14793 267-375); assay: as above
T7 construct: Bought (R&D Systems #788-G8); also called hGDF8; growth and differentiation factor-8
Protocol: as §2

[14] = biological target: T2, Activin AC; assay: as above
Protocol: as §2

[15] = biological target: T8, GDF11 (human, UniProt O95390 299-407); assay: as above
T8 construct: Bought protein; also called hGDF11
Protocol: as §2

[16] = biological target: T4, Activin B; assay: as above
Protocol: as §2

[17] = biological target: T9, hBMP6 (human, UniProt P22004 382-513, limits assumed); assay: as above
T9 construct: Bought protein
T9 sequence (looked up): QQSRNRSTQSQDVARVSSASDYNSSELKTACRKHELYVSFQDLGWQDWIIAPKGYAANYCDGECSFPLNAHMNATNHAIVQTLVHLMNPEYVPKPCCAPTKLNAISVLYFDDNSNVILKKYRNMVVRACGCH
Protocol: as §2

[18] = biological target: T10, hBMP10 (human, UniProt O95393 317-424); assay: as above
T10 construct: Bought protein
T10 sequence (looked up): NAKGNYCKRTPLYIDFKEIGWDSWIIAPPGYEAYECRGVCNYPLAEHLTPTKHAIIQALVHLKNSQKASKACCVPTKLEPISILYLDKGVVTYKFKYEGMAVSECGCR
Protocol: as §2

[19] = biological target: T11, hBMP2 (human, UniProt P12643 283-396); assay: as above
T11 construct: Bought protein; also called BPM2
Protocol: as §2

T8 sequence (O95390 299-407 limits assumed): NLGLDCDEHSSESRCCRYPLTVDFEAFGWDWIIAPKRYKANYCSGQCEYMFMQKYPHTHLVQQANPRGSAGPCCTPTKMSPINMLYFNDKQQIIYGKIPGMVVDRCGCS
T11 sequence (P12643 283-396 limits assumed): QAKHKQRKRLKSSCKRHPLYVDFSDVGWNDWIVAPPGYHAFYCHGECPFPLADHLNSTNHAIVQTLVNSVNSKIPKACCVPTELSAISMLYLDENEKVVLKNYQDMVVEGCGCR

50 nM Ag Bound (RU) [1]: 40 RU | Kd [1]: 0.0228 nM | koff [1]: 0.000103 s⁻¹ | kon [1]: 4.53e+06 M⁻¹ s⁻¹ | t1/2 [1]: 112 min | 50 nM Ag Bound (RU) [2]: 28 RU | Kd [2]: 0.0997 nM | koff [2]: 9.1e-05 s⁻¹ | kon [2]: 913000 M⁻¹ s⁻¹ | t1/2 [2]: 127 min | 50 nM Ag Bound (RU) [3]: 50 RU | Kd [3]: 0.0755 nM | koff [3]: 0.000488 s⁻¹ | kon [3]: 6.47e+06 M⁻¹ s⁻¹ | t1/2 [3]: 23.6 min | 50 nM Ag Bound (RU) [4]: 35.7 RU | Kd [4]: 0.462 nM | koff [4]: 0.00062 s⁻¹ | kon [4]: 1.34e+06 M⁻¹ s⁻¹ | t1/2 [4]: 18.6 min | IC50 [M], inhibition of 100 pM Activin A in A204/CAGAx12-Luc Smad2/3-luciferase bioassay [5]: 1.6e-10 M | IC50 [M], inhibition of 30 pM Activin AB in A204/CAGAx12-Luc Smad2/3-luciferase bioassay [6]: 2.9e-10 M | IC50 [M], inhibition of 4 nM Activin AC in A204/CAGAx12-Luc Smad2/3-luciferase bioassay [7]: 5.8e-10 M | IC50 [M], inhibition of 50 pM Activin B in A204/CAGAx12-Luc Smad2/3-luciferase bioassay [8]: 7.9e-08 M | binding response (resonance units) for 200 nM ligand [9]: 1.1 RU | binding response (resonance units) for 200 nM ligand [10]: 56.8 RU | binding response (resonance units) for 200 nM ligand [11]: 33.4 RU | binding response (resonance units) for 200 nM ligand [12]: 76.5 RU | binding response (resonance units) for 200 nM ligand [13]: -0.4 RU | binding response (resonance units) for 200 nM ligand [14]: 43.1 RU | binding response (resonance units) for 200 nM ligand [15]: 1.6 RU | binding response (resonance units) for 200 nM ligand [16]: 51.5 RU | binding response (resonance units) for 200 nM ligand [17]: 4.6 RU | binding response (resonance units) for 200 nM ligand [18]: 32.4 RU | binding response (resonance units) for 200 nM ligand [19]: 3.6 RU
B1: H4H10429P (antibody, human IgG4, V domains shown)
VH: QVQLVESGGGVVQPGRSLRLSCVASGFTVSSYGIHWVRQAPGKGLEWVSVIWYDGRNKDYADSVKGRFTISRDNSKNTVYLEMKGLRAEDTALYYCARDKTGDFDSWGQGTLVTVSS
VL: DIQMTQSPSSLSASVGDRVTITCRASQNINSFLSWYQQKPGKAPKFLIYDASSIQSGAPSRFSGSGSGTDFTLTISSLQPEDFATYYCQQSYSSPFTFGQGTKLEIK

Reference: patent US20150037339A1 (Regeneron, published 2015)
